Key:
[1] = target: HLA-A*02 (human); experiment: UV-ligand exchange, anti-b2m ELISA; grade: exchange yield >=75%
[2] = target: HLA-A*02 (human); experiment: as above; remark: listed apart in the source
[3] = target: HLA-A*02 (human); experiment: UV-ligand exchange, anti-b2m ELISA; grade: exchange yield >=20%
[4] = target: HLA-A*02 (human); experiment: UV-ligand exchange, anti-b2m ELISA; grade: exchange yield >=50%
[5] = target: HLA-A*02 (human); experiment: UV-ligand exchange, anti-b2m ELISA; grade: exchange yield 50%-75%

FLAELAYDL (also called GPC3-001)
peptide exchange yield [1]: ≥ 75%
peptide exchange yield [2]: ≥ 75%

SLIDQFFGV (also called USP14-001)
peptide exchange yield [1]: ≥ 75%

KQMEPLHAV
peptide exchange yield [3]: 20 to 50%

GVMAGDIYSV (also called ADF-012)
peptide exchange yield [1]: ≥ 75%
peptide exchange yield [2]: ≥ 75%

RLIDRIKTV
peptide exchange yield [3]: 20 to 50%

RLIEEIKNV
peptide exchange yield [3]: 20 to 50%

RLYTMDGITV
peptide exchange yield [3]: 20 to 50%

FLFNTENKLLL (also called IDI1-001)
peptide exchange yield [1]: ≥ 75%
peptide exchange yield [2]: ≥ 75%

SLVGDIGNVNM
peptide exchange yield [3]: 20 to 50%

ALASVIKEL (also called IFT81-001)
peptide exchange yield [1]: ≥ 75%
peptide exchange yield [4]: 50 to 75%

ALADLTGTVV (also called NCST-001)
peptide exchange yield [1]: ≥ 75%
peptide exchange yield [2]: ≥ 75%

YLGEEYVKA
peptide exchange yield [3]: 20 to 50%

YLSQAADGAKVL
peptide exchange yield [3]: 20 to 50%

YLITSVELL (also called ACSL4-001)
peptide exchange yield [1]: ≥ 75%
peptide exchange yield [2]: ≥ 75%

VLTEFTREV (also called IPO9-001)
peptide exchange yield [1]: ≥ 75%
peptide exchange yield [2]: ≥ 75%

FLIAEYFEHV
peptide exchange yield [3]: 20 to 50%

LLYGHTVTV (also called SLC35B2-001)
peptide exchange yield [1]: ≥ 75%
peptide exchange yield [2]: ≥ 75%

FLWTEQAHTV
peptide exchange yield [3]: 20 to 50%

SLLGGNIRL (also called ACSL3-001)
peptide exchange yield [1]: ≥ 75%
peptide exchange yield [2]: ≥ 75%

RIISGLVKV
peptide exchange yield [3]: 20 to 50%

RLLAKIICL
peptide exchange yield [3]: 20 to 50%

RLMSALTQV
peptide exchange yield [3]: 20 to 50%

GVYDGEEHSV (also called MAGEB2-001)
peptide exchange yield [5]: 50 to 75%

ALVEQGFTV (also called APOB-001)
peptide exchange yield [1]: ≥ 75%
peptide exchange yield [2]: ≥ 75%

AVLGPLGLQEV (also called THT-001)
peptide exchange yield [4]: 50 to 75%
peptide exchange yield [5]: 50 to 75%

YLYNNEEQVGL
peptide exchange yield [3]: 20 to 50%

KLLEEATISV (also called DYM-001)
peptide exchange yield [4]: 50 to 75%
peptide exchange yield [5]: 50 to 75%

KLSPTVVGL (also called AXIN2-001)
peptide exchange yield [4]: 50 to 75%
peptide exchange yield [5]: 50 to 75%

KMDPVAYRV (also called QAR-001)
peptide exchange yield [4]: 50 to 75%
peptide exchange yield [5]: 50 to 75%

KLQAGTVFV (also called ALDH1L1-001)
peptide exchange yield [4]: 50 to 75%
peptide exchange yield [5]: 50 to 75%

SLLEKELESV (also called DRG2-001)
peptide exchange yield [4]: 50 to 75%
peptide exchange yield [5]: 50 to 75%

ALCEENMRGV (also called EEF2-001)
peptide exchange yield [4]: 50 to 75%
peptide exchange yield [5]: 50 to 75%

LTDITKGV
peptide exchange yield [3]: 20 to 50%

ALLKVNQEL (also called SAMM-001)
peptide exchange yield [1]: ≥ 75%
peptide exchange yield [2]: ≥ 75%

KLAEIVKQV (also called MAPKAPK5-001)
peptide exchange yield [1]: ≥ 75%
peptide exchange yield [2]: ≥ 75%

AMPPPPPQGV
peptide exchange yield [3]: 20 to 50%

FVLPLLGLHEA
peptide exchange yield [3]: 20 to 50%

VLADFGARV (also called C1QTNF3-001)
peptide exchange yield [5]: 50 to 75%

RVPPPPQSV
peptide exchange yield [3]: 20 to 50%

TLITDGMRSV
peptide exchange yield [3]: 20 to 50%

SLSQELVGV (also called ZNF318-001)
peptide exchange yield [4]: 50 to 75%
peptide exchange yield [5]: 50 to 75%

VMAPFTMTI (also called APOB-003)
peptide exchange yield [1]: ≥ 75%
peptide exchange yield [2]: ≥ 75%

ALVDTLKFV (also called APOB-002)
peptide exchange yield [1]: ≥ 75%
peptide exchange yield [2]: ≥ 75%

RIPAYFVTV
peptide exchange yield [3]: 20 to 50%

FLASESLIKQI
peptide exchange yield [3]: 20 to 50%

TMAKESSIIGV
peptide exchange yield [3]: 20 to 50%

TLAQQPTAV
peptide exchange yield [3]: 20 to 50%

KLQDFSDQL (also called APOB-004)
peptide exchange yield [1]: ≥ 75%
peptide exchange yield [2]: ≥ 75%

SLLEEFDFHV (also called USO-001)
peptide exchange yield [1]: ≥ 75%
peptide exchange yield [2]: ≥ 75%

GLIDTETAMKAV (also called HSD11B1-001)
peptide exchange yield [1]: ≥ 75%
peptide exchange yield [2]: ≥ 75%

FLDTPIAKV
peptide exchange yield [3]: 20 to 50%

FLYPEKDEPT
peptide exchange yield [3]: 20 to 50%

FTIPKLYQL
peptide exchange yield [3]: 20 to 50%

GLAEELVRA
peptide exchange yield [3]: 20 to 50%

KIAGTNAEV
peptide exchange yield [3]: 20 to 50%

KLLAATVLLL
peptide exchange yield [3]: 20 to 50%

KLLDNWDSV
peptide exchange yield [2]: ≥ 75%

Source: patent US20160250307A1 (IMMATICS BIOTECHNOLOGIES, published 2016)
